Legend:
[1] = target: T1, recombinant human AXL extracellular domain, C-terminally His8-tagged (rhAXL-ECD) (human, UniProt P30530 26-451); experiment: SPR Biacore T200, mAb captured on anti-Fc, AXL ECD flowed, multi-cycle kinetics
T1 construct: Made in CHO cells; also called (rh)AXL-ECD His8; human AXL ECD
T1 sequence: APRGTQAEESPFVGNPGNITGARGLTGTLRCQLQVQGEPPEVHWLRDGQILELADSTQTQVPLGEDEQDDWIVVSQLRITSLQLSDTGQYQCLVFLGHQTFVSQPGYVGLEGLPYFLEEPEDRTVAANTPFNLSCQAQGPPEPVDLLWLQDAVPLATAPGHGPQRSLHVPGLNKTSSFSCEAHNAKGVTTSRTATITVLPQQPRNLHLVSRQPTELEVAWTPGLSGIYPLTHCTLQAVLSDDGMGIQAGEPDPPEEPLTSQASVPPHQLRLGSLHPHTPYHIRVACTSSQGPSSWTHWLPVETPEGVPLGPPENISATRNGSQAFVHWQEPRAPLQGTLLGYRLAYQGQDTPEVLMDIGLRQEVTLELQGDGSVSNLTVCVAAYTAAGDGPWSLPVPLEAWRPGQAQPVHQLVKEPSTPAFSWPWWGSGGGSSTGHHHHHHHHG
Experimental: (§1) Surface plasmon resonance. For murine mAbs, binding to human and cynomolgus AXL ECD was assessed using a Biacore T200 instrument. Briefly, either anti-mouse or anti-human Fc antibody was immobilized on a research-grade CM5 series S sensor chip using amine coupling in acetate buffer. Murine or recombinant chimeric murine-human mAbs (mouse VH/VL; human constant regions) were captured, then recombinant human or cyno AXL ECD was flowed over the surface at different concentration ranges (0.1-500 nM) depending on the antibody. The running buffer was PBS/Tween-20 and the flow rate 100 uL/min. All binding studies were performed at 25° C. Surfaces were regenerated using 10 mM glycine, pH 1.5.

[2] = target: T2, recombinant cynomolgus AXL extracellular domain (cynomolgus); experiment: as above
T2 construct: range 1-449; also called Cyno AXL; cyno AXL ECD
Experimental: as §1

Kd [1]: 0.4 nM
koff [1]: 0.00056 s⁻¹
kon [1]: 1.2e+06 M⁻¹ s⁻¹
Kd [2]: 0.2 nM
koff [2]: 0.00023 s⁻¹
kon [2]: 1.8e+06 M⁻¹ s⁻¹
B1: hFC-F107-10G1 (antibody, human IgG1, kappa, V domains shown)
VH: EVNLVESGGGVVKPGASLKLSCEASGFTFSNYGMSWVRQTSDKRLEWVASISGGGGRTYYLDNVKGRFIISRENAKNTLYLQMSSLKSEDTALFYCARGARASYFAMDYWGQGSSVTVSS
VL: VIVMTQSHKFMSTSVGDRVSITCKASQDVTTAVAWYQQKPGQSPKLLIYWASTRHTGVPDRFTGSGSGTDYSLTISNVQTEDLAFYYCQQHFTTPLTFGAGTKLELKR
notes: Chimeric mAb, human IgG1 / human kappa constant regions; also called mAb F107-10G1

— patent publication US20240076389A1 (NATIONAL RESEARCH COUNCIL OF CANADA, published 2024)
